# Laboratory results as given in patent US20190367560A1.
# Bridges are numbered along the chain shown (N, C = ends). Primed or numbered codes have the meaning given here. Where no end group is shown, it is not given here. [ ]: non-standard residue; d: D form. The star is where a group is joined. Biotin = O=C1N[C@H]2[C@H](CS[C@H]2CCCCC(=O)*)N1; Fmoc = O=C(OCC1c2ccccc2-c2ccccc21)*; PEG4′ = not defined here
# Key:
# [1] = target: human serum-derived γ-globulin (Wako) (human); assay: dynamic binding capacity at 10% breakthrough; Protein A support; residence time 2.5 min
# [2] = target: human serum-derived γ-globulin (Wako) (human); assay: dynamic binding capacity at 10% breakthrough; Protein A support; residence time 5 min
# [3] = target: human serum-derived γ-globulin (Wako) (human); assay: dynamic binding capacity at 10% breakthrough; Protein A support; residence time 1 min
# IgG [4] = assay: SPR (BIAcore T200), equilibrium value
# IgG [5] = assay: SPR (BIAcore T200), 1:1 binding fit
# IgG [6] = assay: SPR as in Example 1 (BIAcore T200, IgG immobilized)
# [7] = target: human serum-derived γ-globulin (Wako) (human); assay: DBC at 1 mL/min, 1 mg peptide column, after 0 cycles of 0.1 M NaOH washing
# [8] = target: human serum-derived γ-globulin (Wako) (human); assay: dynamic binding capacity at 10% breakthrough; 1 mg peptide on 1-mL column; residence time 1 min
# [9] = target: human serum-derived γ-globulin (Wako) (human); assay: dynamic binding capacity at 10% breakthrough; 4 mg peptide on 1-mL column; residence time 2.5 min
# [10] = target: human serum-derived γ-globulin (Wako) (human); assay: DBC at 1 mL/min, 1 mg peptide column, after 4 cycles of 0.1 M NaOH washing
# [11] = target: human serum-derived γ-globulin (Wako) (human); assay: dynamic binding capacity at 10% breakthrough; 4 mg peptide on 1-mL column; residence time 5 min
# [12] = target: human serum-derived γ-globulin (Wako) (human); assay: DBC at 1 mL/min, 1 mg peptide column, after 5 cycles of 0.1 M NaOH washing
# [13] = target: human serum-derived γ-globulin (Wako) (human); assay: dynamic binding capacity at 10% breakthrough; 10 mg peptide on 1-mL column; residence time 5 min
# [14] = target: human serum-derived γ-globulin (Wako) (human); assay: dynamic binding capacity at 10% breakthrough; 1 mg peptide on 1-mL column; residence time 2.5 min
# [15] = target: human serum-derived γ-globulin (Wako) (human); assay: dynamic binding capacity at 10% breakthrough; 10 mg peptide on 1-mL column; residence time 2.5 min
# [16] = target: human serum-derived γ-globulin (Wako) (human); assay: dynamic binding capacity at 10% breakthrough; 1 mg peptide on 1-mL column; residence time 5 min
# [17] = target: human serum-derived γ-globulin (Wako) (human); assay: DBC at 1 mL/min, 1 mg peptide column, after 1 cycle of 0.1 M NaOH washing
# [18] = target: human serum-derived γ-globulin (Wako) (human); assay: DBC at 1 mL/min, 1 mg peptide column, after 3 cycles of 0.1 M NaOH washing
# [19] = target: human serum-derived γ-globulin (Wako) (human); assay: dynamic binding capacity at 10% breakthrough; 10 mg peptide on 1-mL column; residence time 1 min
# [20] = target: human serum-derived γ-globulin (Wako) (human); assay: dynamic binding capacity at 10% breakthrough; 4 mg peptide on 1-mL column; residence time 1 min
# [21] = target: human serum-derived γ-globulin (Wako) (human); assay: DBC at 1 mL/min, 1 mg peptide column, after 2 cycles of 0.1 M NaOH washing
molecule,measurement,setting,value
commercially available Protein A support MabSelect (GE Healthcare) (from UniProt P38507 37-327),DBC,[1],24.3
same,DBC,[2],43.7
same,DBC,[3],10
"GPDCAYH(Xaa1)…-NH2 (SEQ ID NO:2, wherein Xaa1 is acetylated lysine), N-terminus blocked with biotinylated PEG4, intramolecular S-S bond (peptide)",Kd,IgG [4],2800 nM
same,Kd,IgG [5],2700 nM
"GPDCAYH(Xaa1)…-NH2 (SEQ ID NO:2, wherein Xaa1 is lysine), N-terminus blocked with biotinylated PEG4, intramolecular S-S bond (peptide)",Kd,IgG [4],131 nM
same,Kd,IgG [5],156 nM
{Biotin-PEG4′}-GPDCAYHRGELVWCTFH-NH2 (disulfide 4-14 (inferred)),Kd,IgG [4],10 nM
same,Kd,IgG [5],9.1 nM
{Biotin-PEG4′}-GPDCAYHLGELVWCTFH-NH2 (disulfide 4-14 (inferred)),Kd,IgG [5],8.1 nM
{Biotin-PEG4′}-DCAYHRGELVWCT-NH2 (disulfide 2-12 (inferred)),Kd,IgG [4],64.5 nM
same,Kd,IgG [5],54 nM
{Fmoc-PEG4′}-GPDCAYHRGELVWCTFH-NH2 (linker 4-14 via thiocarbonyldiimidazole),Kd,IgG [6],1000 nM
"[PEG4′]GPDCAYHRGELVWCTFH-NH2 (linker 5-15 via 1,3‑dichloro‑2‑propanone)",DBC 10%,[7],4.8 mg/mL
same,DBC 10% (% NaOH washing cycle 0),[7],100%
same,DBC,[8],2.3
same,DBC,[9],15.8
same,DBC 10%,[10],4.8 mg/mL
same,DBC 10% (% NaOH washing cycle 0),[10],100%
same,DBC,[11],23.1
same,DBC 10%,[12],4.7 mg/mL
same,DBC 10% (% NaOH washing cycle 0),[12],97.9%
same,DBC,[13],31.4
same,DBC,[14],3.4
same,DBC,[15],29.5
same,DBC,[16],7
same,DBC 10%,[17],4.8 mg/mL
same,DBC 10% (% NaOH washing cycle 0),[17],100%
same,DBC 10%,[18],4.8 mg/mL
same,DBC 10% (% NaOH washing cycle 0),[18],100%
same,DBC,[19],23.1
same,DBC,[20],12.1
same,DBC 10%,[21],4.9 mg/mL
same,DBC 10% (% NaOH washing cycle 0),[21],102%
{Biotin-PEG4′}-GPRCAYHRGELVWCSFH-NH2 (disulfide 4-14 (inferred)),Kd,IgG [4],56 nM
same,Kd,IgG [5],42 nM
